Target: Citrobacter sp. RHBSTW-00271 Ubl3 (Citrobacter sp. RHBSTW-00271)
Experiment: SEC-MALS

- stoichiometry N: 2
Substance: Citrobacter sp. RHBSTW-00271 Ubl3 (domain or fragment)

Source: paper PMC11601603
